# Measurements from article PMC3701624, “Three-Dimensional Structure of Human NLRP10/PYNOD Pyrin Domain Reveals a Homotypic Interaction Site Distinct from Its Mouse Homologue” (PLoS ONE, 2013).
# T1: MBP-huNLRP10ΔPYD (Arg103-Ile655) (Homo sapiens (Human), UniProt Q86W26)
# T1 chain: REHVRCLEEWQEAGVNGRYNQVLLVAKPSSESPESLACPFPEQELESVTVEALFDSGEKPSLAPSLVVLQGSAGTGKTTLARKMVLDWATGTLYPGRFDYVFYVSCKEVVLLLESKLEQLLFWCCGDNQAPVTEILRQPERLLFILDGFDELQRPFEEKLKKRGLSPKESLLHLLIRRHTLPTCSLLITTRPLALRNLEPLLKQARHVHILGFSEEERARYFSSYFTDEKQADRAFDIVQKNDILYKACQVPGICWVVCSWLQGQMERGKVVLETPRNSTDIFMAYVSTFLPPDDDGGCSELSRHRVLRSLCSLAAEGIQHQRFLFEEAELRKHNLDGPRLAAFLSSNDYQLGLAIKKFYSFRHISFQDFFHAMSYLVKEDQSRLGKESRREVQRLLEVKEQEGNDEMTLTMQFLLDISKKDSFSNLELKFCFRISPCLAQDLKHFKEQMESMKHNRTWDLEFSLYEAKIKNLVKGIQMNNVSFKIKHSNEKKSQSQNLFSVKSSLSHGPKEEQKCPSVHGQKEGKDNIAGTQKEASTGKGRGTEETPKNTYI
# B1: human NLRP10/PYNOD pyrin domain (residues 1-100) (protein)
# chain: MAMAKARKPREALLWALSDLEENDFKKLKFYLRDMTLSEGQPPLARGELEGLIPVDLAELLISKYGEKEAVKVVLKGLKVMNLLELVDQLSHICLHDYRE
# B2: MBP-huNLRP10ΔPYD (huNLRP10ΔPYD) (Homo sapiens) (protein)
# chain: T1 chain
# notes: NOD only, pyrin domain removed (Arg103-Ile655), N-terminal His6-MBP fusion (pETM41), tag kept; E. coli BL21(DE3)
# B3: MBP-huNLRP10 (huNLRP10, PYNOD) (Homo sapiens) (protein)
# chain: MAMAKARKPREALLWALSDLEENDFKKLKFYLRDMTLSEGQPPLARGELEGLIPVDLAELLISKYGEKEAVKVVLKGLKVMNLLELVDQLSHICLHDYREVYREHVRCLEEWQEAGVNGRYNQVLLVAKPSSESPESLACPFPEQELESVTVEALFDSGEKPSLAPSLVVLQGSAGTGKTTLARKMVLDWATGTLYPGRFDYVFYVSCKEVVLLLESKLEQLLFWCCGDNQAPVTEILRQPERLLFILDGFDELQRPFEEKLKKRGLSPKESLLHLLIRRHTLPTCSLLITTRPLALRNLEPLLKQARHVHILGFSEEERARYFSSYFTDEKQADRAFDIVQKNDILYKACQVPGICWVVCSWLQGQMERGKVVLETPRNSTDIFMAYVSTFLPPDDDGGCSELSRHRVLRSLCSLAAEGIQHQRFLFEEAELRKHNLDGPRLAAFLSSNDYQLGLAIKKFYSFRHISFQDFFHAMSYLVKEDQSRLGKESRREVQRLLEVKEQEGNDEMTLTMQFLLDISKKDSFSNLELKFCFRISPCLAQDLKHFKEQMESMKHNRTWDLEFSLYEAKIKNLVKGIQMNNVSFKIKHSNEKKSQSQNLFSVKSSLSHGPKEEQKCPSVHGQKEGKDNIAGTQKEASTGKGRGTEETPKNTYI
# notes: full length (Met1-Ile655), N-terminal His6-MBP fusion (pETM41), tag kept; E. coli BL21(DE3)
# Legend:
# [1] = target: T1, MBP-huNLRP10ΔPYD (Arg103-Ile655); experiment: size-exclusion chromatography and pull-down (data not shown)
# [2] = substrate: Nc1ncnc2c1ncn2[C@@H]1O[C@H](COP(=O)(O)OP(=O)(O)OP(=O)(O)O)[C@@H](O)[C@H]1O; experiment: malachite green phosphate release, Lineweaver-Burk; type: biochemical, Homo sapiens; conditions: 50 mM Tris-HCl pH 8.0, 10 mM MgCl2, 37°C, 3 µM protein, 0.1–3.2 mM nucleotide
# Excerpt: (§1) malachite green phosphate release, Lineweaver-Burk on MBP-huNLRP10ΔPYD (huNLRP10ΔPYD)
# [3] = substrate: Nc1nc2c(ncn2[C@@H]2O[C@H](COP(=O)(O)OP(=O)(O)OP(=O)(O)O)[C@@H](O)[C@H]2O)c(=O)[nH]1; experiment: malachite green phosphate release, Lineweaver-Burk; type: biochemical, Homo sapiens; conditions: 50 mM Tris-HCl pH 8.0, 10 mM MgCl2, 37°C, 3 µM protein, 0.1–3.2 mM nucleotide
# Excerpt: as §1
# [4] = substrate: Nc1ncnc2c1ncn2[C@@H]1O[C@H](COP(=O)(O)OP(=O)(O)OP(=O)(O)O)[C@@H](O)[C@H]1O; experiment: malachite green phosphate release, Lineweaver-Burk; type: biochemical, Homo sapiens; conditions: 50 mM Tris-HCl pH 8.0, 10 mM MgCl2, 37°C, 3 µM protein, 0.1–3.2 mM nucleotide; remark: listed apart in the source
# Excerpt: (§2) malachite green phosphate release, Lineweaver-Burk on MBP-huNLRP10 (huNLRP10, PYNOD)
# [5] = substrate: Nc1nc2c(ncn2[C@@H]2O[C@H](COP(=O)(O)OP(=O)(O)OP(=O)(O)O)[C@@H](O)[C@H]2O)c(=O)[nH]1; experiment: malachite green phosphate release, Lineweaver-Burk; type: biochemical, Homo sapiens; conditions: 50 mM Tris-HCl pH 8.0, 10 mM MgCl2, 37°C, 3 µM protein, 0.1–3.2 mM nucleotide; remark: listed apart in the source
# Excerpt: as §2
binder,measurement,setting,value
B1,binding result,[1],no binding
B2,Km,[2],201.9 ± 1.9 µM
same,Km,[3],193.7 ± 17.1 µM
B3,Km,[4],169.3 ± 7.3 µM
same,Km,[5],295.6 ± 11.0 µM
